According to patent publication US20060165706A1 (GENETICS INSTITUTE, published 2006):

What was measured:
human CTLA4-Ig [1] = target: T1, human CTLA4-Ig (human, UniProt P16410 38-161); assay: calculated; method and form of CTLA4 not stated (Example 8, competition assays); murine antibody
T1 construct: also called rhCTLA4IgG1Fc; not shown: immunoglobulin Fc part of the fusion; named IgG1Fc in rhCTLA4IgG1Fc and detected with anti-human Fc

human CTLA4-Ig [2] = target: T1, human CTLA4-Ig; assay: competition ELISA on plate-coated human CTLA4-Ig (10 ug/ml); cold competitor titrated against biotinylated murine CTLA4-26B; streptavidin-peroxidase, ABTS, O.D. 415 nm
Description: (§1) Plates were coated with human CTLA4-Ig (10 ug/ml) overnight, washed the next day and blocked with Superblock (Pierce) for 15 min at room temperature. Plates were washed three times with 1×PBS/0.1% Tween 20 and three times with 1×PBS.
(§2) 100 ul of antibody mixtures was transferred to human CTLA4-Ig coated ELISA plate and rocked for 2 hours at room temperature. Plates were washed as described above and a secondary reagent (streptavidin peroxidase conjugate at 1:1000 dilution) in PBT buffer (1×PBS, 1% BSA, 0.1% Tween 20 was added. Plates were incubated for 1 hr at RT with shaking. Plates were washed as described above and developed for 10 minutes at room temperature with ABTS+H2O2 (100 ul/well) and the reaction was stopped with 2% oxalic acid (100 ul/well).

human CTLA4-Ig [3] = target: T1, human CTLA4-Ig; assay: inhibition ELISA on plate-coated human CTLA4-Ig (10 ug/ml); antibody titrated, then biotin-CD86-Ig at 0.66 ug/ml as the blocked ligand; neutravidin-AP, ABTS
Description: ELISA were performed as described above with modifications. […] After washing, saturating concentrations of neutravidin-AP were added, and incubated for 1 hr at RT. Unbound neutravidin-AP was washed using PBS/1% BSA. The assay was developed using ABTS.

E46 [4] = target: T2, E46; assay: sandwich ELISA: antibody coated at 10 ug/ml, CHO supernatant with CTLA4-Ig mutant, AP-goat anti-human Fc
T2 construct: one of 11 alanine mutants made by site-directed mutagenesis, used as CHO supernatant; also called CTLA4 point mutant E46; CTLA4-Ig E46A; not shown: human Ig Fc portion (with hinge or linker) of the CTLA4-Ig fusion

human CTLA4-Ig [5] = target: T1, human CTLA4-Ig; assay: ELISA on plate-coated human CTLA4-Ig (10 ug/ml); serial dilutions of antibody, AP-goat anti-mouse, ABTS, OD 405 nm
Description: ELISA plates were incubated with 10 ug/ml human CTLA4-Ig overnight. Plates were washed with PBS/1% BSA and incubated with serial dilutions of primary antibody for 2 hrs at room temperature (RT). After washing, saturating concentrations of AP-conjugated goat anti-mouse antibody were added, and incubated for 1 hr at RT. Unbound goat antibodies were washed using PBS/1% BSA. The assay was developed using ABTS.

R85 = target: T3, R85; assay: sandwich ELISA: antibody coated at 10 ug/ml, CHO supernatant with about 0.5 ug/ml CTLA4-Ig mutant, AP-goat anti-human Fc; blanks on the sheet: Mock 0.174, DME 0.183
T3 construct: one of 11 alanine mutants made by site-directed mutagenesis, used as CHO supernatant; also called CTLA4 point mutant R85; CTLA4-Ig R85A; not shown: human Ig Fc portion (with hinge or linker) of the CTLA4-Ig fusion

I65 = target: T4, I65; assay: as above
T4 construct: one of 11 alanine mutants made by site-directed mutagenesis, used as CHO supernatant; also called CTLA4 point mutant I65; CTLA4-Ig I65A; not shown: the human Ig (Fc) part of the CTLA4-Ig fusion and its junction

E46 [6] = target: T2, E46; assay: as above
Description: Mutant proteins were transiently expressed on CHO cells and supernatants harvested at 48 hrs. Supernatants containing CTLA4 mutant molecules were quantitated and standardized by ELISA. […] After incubation for 2 hrs at RT, plates were washed and incubated for 1 hr with AP-conjugated goat anti-human Fc specific IgG. The assay was developed as described above.

Q82 = target: T5, Q82; assay: as above
T5 construct: one of 11 alanine mutants made by site-directed mutagenesis, used as CHO supernatant; also called CTLA4 point mutant Q82; CTLA4-Ig Q82A; not shown: human Ig Fc portion (with hinge or linker) of the CTLA4-Ig fusion

S64 = target: T6, S64; assay: as above
T6 construct: one of 11 alanine mutants made by site-directed mutagenesis, used as CHO supernatant; also called CTLA4 point mutant S64; CTLA4-Ig S64A; not shown: human Ig Fc portion (with hinge or linker) of the CTLA4-Ig fusion

D62 = target: T7, D62; assay: as above
T7 construct: one of 11 alanine mutants made by site-directed mutagenesis, used as CHO supernatant; also called CTLA4 point mutant D62; CTLA4-Ig D62A; not shown: human Ig Fc portion (with hinge or linker) of the CTLA4-Ig fusion

T67 = target: T8, T67; assay: as above
T8 construct: one of 11 alanine mutants made by site-directed mutagenesis, used as CHO supernatant; also called CTLA4 point mutant T67; CTLA4-Ig T67A; not shown: human Ig Fc portion (with hinge or linker) of the CTLA4-Ig fusion

D63 = target: T9, D63; assay: as above
T9 construct: one of 11 alanine mutants made by site-directed mutagenesis, used as CHO supernatant; also called CTLA4 point mutant D63; CTLA4-Ig D63A; not shown: human Ig Fc portion (with hinge or linker) of the CTLA4-Ig fusion

R38 = target: T10, R38; assay: as above
T10 construct: one of 11 alanine mutants made by site-directed mutagenesis, used as CHO supernatant; also called CTLA4 point mutant R38; CTLA4-Ig R38A; not shown: human Ig Fc portion (with hinge or linker) of the CTLA4-Ig fusion

T45 = target: T11, T45; assay: as above
T11 construct: one of 11 alanine mutants made by site-directed mutagenesis, used as CHO supernatant; also called CTLA4 point mutant T45; CTLA4-Ig T45A; not shown: the human Ig (Fc) part of the CTLA4-Ig fusion and its junction

L61 = target: T12, L61; assay: as above
T12 construct: one of 11 alanine mutants made by site-directed mutagenesis, used as CHO supernatant; also called CTLA4 point mutant L61; CTLA4-Ig L61A; not shown: the human Ig (Fc) part of the CTLA4-Ig fusion and its junction

human CTLA4-Ig [7] = target: T1, human CTLA4-Ig; assay: competition ELISA on coated human CTLA4-Ig; reference murine CTLA4-26B
Description: as §1, §2

[8] = target: CTLA4 on CTLA4-expressing CHO cells (human, UniProt P16410 36-223); assay: FACS competition on CTLA4-expressing CHO cells; competitor 125 ng FITC-labeled murine anti-CTLA4; unlabeled antibody 2000 ng to 100 ng
CTLA4 on CTLA4-expressing CHO cells, sequence (P16410 36-223 T147A limits assumed): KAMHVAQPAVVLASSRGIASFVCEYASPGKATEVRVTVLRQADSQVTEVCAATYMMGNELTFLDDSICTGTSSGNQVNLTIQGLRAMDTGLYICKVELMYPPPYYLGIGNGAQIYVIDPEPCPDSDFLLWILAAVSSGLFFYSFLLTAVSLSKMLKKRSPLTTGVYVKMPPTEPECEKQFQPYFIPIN
Description: The starting concentration of the unlabeled competitor was 2000 ng and was diluted 2-fold serially to 100 ng.

human CTLA4-Ig [9] = target: T1, human CTLA4-Ig; assay: calculated; method and form of CTLA4 not stated (Example 8, competition assays); humanized, IgG1 isotype
human CTLA4-Ig [10] = target: T1, human CTLA4-Ig; assay: calculated; method and form of CTLA4 not stated (Example 8, competition assays); humanized, IgG4 isotype
human CTLA4-Ig [11] = target: T1, human CTLA4-Ig; assay: calculated; method and form of CTLA4 not stated (Example 8, competition assays); humanized, IgG2m3 isotype

T1 sequence (P16410 other isoform, or with tags, fused parts or gaps limits assumed): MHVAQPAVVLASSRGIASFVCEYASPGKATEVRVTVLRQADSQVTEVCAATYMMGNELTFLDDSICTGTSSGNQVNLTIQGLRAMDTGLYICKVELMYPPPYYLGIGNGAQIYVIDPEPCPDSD

B1: murine anti-human CTLA4 monoclonal antibody number 26 (antibody, V domains shown)
VH: QVQLKESGPGLVAPSQSLSITCTVSGFSLTSYGVYWVRQPPGKGLEWLGVIWAGGTTNYNSALMSRLSISKDNSKSQVFLKMSSLQTDDTAMYYCARGPPHAMMKRGYAMDYWGQGTSVIVSS
VL: QNVLTQSPAIMPASPGEKVTMTCSATSSITYMSWYQQKSGSSPRLLIYDTSNLASGVPVRFSGSGSGTSYSLTISRMEAEDAATYYCQQWSSYPLTFGAGTKLELK
notes: Mouse IgG1; also called antibody 26; antibody 26B
Human CTLA4-Ig [1]
  Kd: ~1.7 nM
Human CTLA4-Ig [2]
  IC50 (read off the curve): ~3 µg/mL
Human CTLA4-Ig [3]
  IC50 (read off the curve): ~0.6 µg/mL
E46 [4]
  binding result: no binding
Human CTLA4-Ig [5]
  EC50 (read off the curve): ~0.05 µg/mL
R85
  O.D. 450 nm: 0.976
I65
  O.D. 450 nm: 1.17
E46 [6]
  O.D. 450 nm: 0.16
Q82
  O.D. 450 nm: 1.07
S64
  O.D. 450 nm: 1.1
D62
  O.D. 450 nm: 0.974
T67
  O.D. 450 nm: 0.944
D63
  O.D. 450 nm: 0.979
R38
  O.D. 450 nm: 0.636
T45
  O.D. 450 nm: 0.948
L61
  O.D. 450 nm: 1.19

B2: humanized anti-CTLA4 antibody 26, IgG1 isotype (antibody, V domains shown)
VH: QVQLQESGPGLVKPSQTLSLTCTVSGFSLTSYGVYWVRQPPGKGLEWLGVIWAGGTTNYNSALMSRLTISKDTSKNQVSLKLSSVTAADTAVYYCARGPPHAMMKRGYAMDYWGQGTLVTVSS
VL: DIQMTQSPSSLSASVGDRVTITCSATSSITYMSWYQQKPGKAPKLLIYDTSNLASGVPSRFSGSGSGTDYTLTISSLQPEDFATYYCQQWSSYPLTFGGGTKVEIK
notes: Human IgG1 heavy constant region (pVgamma1 vector) and human kappa constant region (pVkappa vector); also called hCTLA4-26B IgG1; humanized anti-CTLA4 IgG1
Human CTLA4-Ig [7]
  fold difference in affinity against the murine antibody: ≤ 10 fold
[8]
  fold difference in binding affinity against the murine antibody: ≤ 3 fold
Human CTLA4-Ig [2]
  IC50 (read off the curve): ~3 µg/mL
Human CTLA4-Ig [9]
  Kd: ~2 nM

B3: humanized anti-CTLA4 antibody 26, IgG4 isotype (antibody, V domains shown)
VH: QVQLQESGPGLVKPSQTLSLTCTVSGFSLTSYGVYWVRQPPGKGLEWLGVIWAGGTTNYNSALMSRLTISKDTSKNQVSLKLSSVTAADTAVYYCARGPPHAMMKRGYAMDYWGQGTLVTVSS
VL: DIQMTQSPSSLSASVGDRVTITCSATSSITYMSWYQQKPGKAPKLLIYDTSNLASGVPSRFSGSGSGTDYTLTISSLQPEDFATYYCQQWSSYPLTFGGGTKVEIK
notes: Human IgG4 heavy constant region (pVgamma4 vector) and human kappa constant region; also called hCTLA4-26B IgG4; PVkLC+PVg4HC
Human CTLA4-Ig [7]
  fold difference in affinity against the murine antibody: ≤ 10 fold
Human CTLA4-Ig [2]
  IC50 (read off the curve): ~3 µg/mL
Human CTLA4-Ig [10]
  Kd: ~1.1 nM

B4: humanized anti-CTLA4 antibody 26, IgG2m3 isotype (antibody, V domains shown)
VH: QVQLQESGPGLVKPSQTLSLTCTVSGFSLTSYGVYWVRQPPGKGLEWLGVIWAGGTTNYNSALMSRLTISKDTSKNQVSLKLSSVTAADTAVYYCARGPPHAMMKRGYAMDYWGQGTLVTVSS
VL: DIQMTQSPSSLSASVGDRVTITCSATSSITYMSWYQQKPGKAPKLLIYDTSNLASGVPSRFSGSGSGTDYTLTISSLQPEDFATYYCQQWSSYPLTFGGGTKVEIK
notes: Human IgG2m3 (mutated IgG2) heavy constant region (pVgamma2m3 vector) and human kappa constant region; also called hCTLA4-26B IgG2m3; IgG2 m3 (2 mutated 3)
Human CTLA4-Ig [7]
  fold difference in affinity against the murine antibody: ≤ 10 fold
Human CTLA4-Ig [11]
  Kd: ~1.2 nM
Human CTLA4-Ig [2]
  IC50 (read off the curve): ~3 µg/mL
